The record followed here is US20220064329A1 (Novo Nordisk, published 2022).

Positions count from the first letter of the chain named.

T1: recombinant human activated Factor VII (FVIIa) (human, UniProt P08709 61-212; P08709 213-466, Gla domain: ten glutamate residues may be gamma-carboxylated)
T1 sequence 1: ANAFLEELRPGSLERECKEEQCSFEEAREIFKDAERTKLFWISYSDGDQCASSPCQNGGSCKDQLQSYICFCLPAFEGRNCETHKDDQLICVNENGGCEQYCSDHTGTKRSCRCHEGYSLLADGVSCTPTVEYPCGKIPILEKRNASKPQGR
T1 sequence 2: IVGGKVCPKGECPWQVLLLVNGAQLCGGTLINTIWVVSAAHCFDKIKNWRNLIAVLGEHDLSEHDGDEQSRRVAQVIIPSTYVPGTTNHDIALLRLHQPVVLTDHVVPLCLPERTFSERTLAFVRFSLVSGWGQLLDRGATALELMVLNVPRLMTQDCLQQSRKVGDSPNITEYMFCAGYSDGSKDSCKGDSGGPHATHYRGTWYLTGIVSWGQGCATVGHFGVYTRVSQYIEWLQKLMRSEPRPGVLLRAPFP

T2: recombinant human activated FVII (FVIIa) (human, UniProt P08709 61-212; P08709 213-466, ten glutamate residues of the Gla domain may be gamma-carboxylated)
T2 sequence 1: T1 sequence 1
T2 sequence 2: T1 sequence 2

T3: sTLT1 (SEQ ID No: 3 with six histidine residues added at the C-terminus) (human, UniProt Q86YW5 16-162)
T3 construct: Soluble TLT-1 used in SPR
T3 sequence: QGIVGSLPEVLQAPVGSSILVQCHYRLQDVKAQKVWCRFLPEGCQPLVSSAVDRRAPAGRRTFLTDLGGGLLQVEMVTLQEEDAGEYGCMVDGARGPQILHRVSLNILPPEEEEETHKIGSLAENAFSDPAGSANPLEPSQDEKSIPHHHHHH

B1: mAb0018 (antibody, V domains shown)
VH: QITLKESGPGILKPSQTLSLTCSFSGFSLSTSGLGVGWIRQTSGKGLEWLAHIWWDDDKYYYPPLKSQLTISKDTSRNQVFLKITSVDTADTATYYCARRAFYDGYYGPMEYWGQGTSVTVSS
VL: DIVLSQSPSSLAVSVGEKVTMSCKSSQSLLYSSNQKNSLAWYQHKPGQSPKLLIYWASTRESGVPDRFTGSGSGTDFTLTISNVKAEDLAVYYCHQYYNYLLTFGPGTKLELK
notes: fully murine, hybridoma-derived; also called 8F19
B2: mAb0007 (antibody, V domains shown)
VH: DVQLQESGPGLVEPSQSLSLTCTVTGYSITSDCAWSWIRQFPGNKLEWMGYINYSGSTNYNPSLKSRISITRDTSKNQFFLRLNSVTGEDTATYYCARSVNYYGNSFAVGYWGQGTSVTVSS
VL: DIVMTQSPATLSVTPGDRVSLSCRASQSISDYLHWYQHKSHESPRLLIKYVSQPISGIPSRFSGSGSGSEFTLSINSVEPEDVGVYYCQNGHSFPLTFGAGTKLELK
notes: fully murine, hybridoma-derived; also called 11F34
B3: mAb0001 (antibody, V domains shown)
VH: EIQLQQTGPELVKPGASVKISCKASGYSFTDYIMVWMKQSQGKTLEWIGKINPYYGDISYNLKFKGKATLTVDKSSSTVYMQLNSLASEDSAVYYCARGFYYDYFDQWGQGTTLTVSS
VL: DVMVTQTPLSLPVNLGDQASISCRSSQSLVHSNGNTYLHWYLQKPGQSPKLLIYRVSDRFSGVPDRFSGSGSGTDFTLKISRVEAEDLGVYFCSQSTHVPPTFGGGTKLEIK
notes: fully murine, hybridoma-derived; also called 11F26
B4: mAb0004 (antibody, V domains shown)
VH: QVQLKESGPGLVAPSQSLSITCTVSGFSLTDYGVSWIRQPPGKGLEWLGVIWGGGNTYNNSALKSRLSISKDNSKSQVFLKMNSLQADDTAMYFCAKHGYYGYVMDYWGQGTSVTVSS
VL: DIVMTQSHKIMSTLVGDRVSITCKASQDVDPAVAWYQQKPGQYPKLLIYWASTRHTGVPDRFTGSGSGTDFTLTISNVQSEDLADYFCQQYSKYPYTFGGGTKLEIK
notes: fully murine, hybridoma-derived; also called 11F19
B5: mAb0587 (antibody, V domains shown)
VH: QVQLQQSGAELLKPGASVKISCKATDYTFSRYWIEWVKQRPGHGLEWIGEILPGSVNIKYNEIFKGKATFTAETSSNTAYMQLSSLTSEDSAVYYCTRTPYLQRGAYWGQGTLVTVSA
VL: QIVLTQSPAIMSASPGEKVTITCSASSSVSYMFWFQQKPGTSPKLWIYSTSNLASGVPARFSGSGSGTSYSLTISRMEAEDAATYYCQQRSSYPLTFGAGTKLELK
notes: fully murine, hybridoma-derived; also called 12F39
B6: mAb0578 (antibody, V domains shown)
VH: QVQLQQSGAELMKPGASVKISCKATGYTFNTYWIEWVKQRPGHGLEWIGEILPGRGTTNYNENFKGKATITADISSNTAYLQLSSLTGEDSAVYYCARLTPLSLRTGYWGQGTTLTVSS
VL: DILLTQSPAILSVSPGERVSFSCRASQSIGTSIHWYQQRTNGSPRLLIKYASESISGIPSRFSGSGSGTDFTLSINSVESEDIADYYCQQSNSWPFTFGSGTKLEIK
notes: fully murine, hybridoma-derived; also called 12F19
B7: biAb0012 (bispecific antibody, human IgG4 S228P, kappa)
heavy 1: DVQLQESGPGLVEPSQSLSLTCTVTGYSITSDSAWSWIRQFPGNKLEWMGYIQYSGSTNYNPSLKSRISVTRDTSKNQFFLRLSSVTAEDTATYYCTRSVNYYGNSFAVGYWGQGTSVTVSSASTKGPSVFPLAPCSRSTSESTAALGCLVKDYFPEPVTVSWNSGALTSGVHTFPAVLQSSGLYSLSSVVTVPSSSLGTKTYTCNVDHKPSNTKVDKRVESKYGPPCPPCPAPEFLGGPSVFLFPPKPKDTLMISRTPEVTCVVVDVSQEDPEVQFNWYVDGVEVHNAKTKPREEQFNSTYRVVSVLTVLHQDWLNGKEYKCKVSNKGLPSSIEKTISKAKGQPREPQVYTLPPSQEEMTKNQVSLTCLVKGFYPSDIAVEWESNGQPENNYKTTPPVLDSDGSFLLYSKLTVDKSRWQEGNVFSCSVMHEALHNHYTQKSLSLSLGK
light 1: EIVLTQSPATLSLSPGERATLSCRASQGISDYLHWYQQKPGEAPRLLIKYTSQPATGIPARFSGSGSGTDFTLTISSLEPEDVGVYYCQSGHSFPLTFGAGTKLELKRTVAAPSVFIFPPSDEQLKSGTASVVCLLNNFYPREAKVQWKVDNALQSGNSQESVTEQDSKDSTYSLSSTLTLSKADYEKHKVYACEVTHQGLSSPVTKSFNRGEC
heavy 2: not shown
light 2: DIVMTQTPLSSPVTLGQPASISCRSSQSLVHRQGNTYFHWLQQRPGQPPRLLIYKVSNRFSGVPDRFSGSGAGTDFTLKISRVEAEDVGVYYCSQSTHVPYTFGQGTKLEIKRTVAAPSVFIFPPSDEQLKSGTASVVCLLNNFYPREAKVQWKVDNALQSGNSQESVTEQDSKDSTYSLSSTLTLSKADYEKHKVYACEVTHQGLSSPVTKSFNRGEC
notes: Duobody, constant domain type H (IgG4): anti-FVII(a) arm mAb0872, anti-TLT-1 arm mAb1076; also called mAb0872 x mAb1076
B8: biAb0098 (bispecific antibody, human IgG4 S228P, kappa)
heavy 1: DVQLQESGPGLVEPSQTLSLTCTVSGYSITSDSAWSWIRQFPGKKLEWMGYIQYSGSTNYNPSLKSRVTISRDTSKNQFSLKLSSVTAEDTAVYYCARSVNYYGNSFAVDYWGQGTSVTVSSASTKGPSVFPLAPCSRSTSESTAALGCLVKDYFPEPVTVSWNSGALTSGVHTFPAVLQSSGLYSLSSVVTVPSSSLGTKTYTCNVDHKPSNTKVDKRVESKYGPPCPPCPAPEFLGGPSVFLFPPKPKDTLMISRTPEVTCVVVDVSQEDPEVQFNWYVDGVEVHNAKTKPREEQFNSTYRVVSVLTVLHQDWLNGKEYKCKVSNKGLPSSIEKTISKAKGQPREPQVYTLPPSQEEMTKNQVSLTCLVKGFYPSDIAVEWESNGQPENNYKTTPPVLDSDGSFLLYSKLTVDKSRWQEGNVFSCSVMHEALHNHYTQKSLSLSLGK
light 1: B7 light 1 with S90N
heavy 2: not shown
light 2: B7 light 2 with Q33N
notes: Duobody, constant domain type H (IgG4): anti-FVII(a) arm mAb0874, anti-TLT-1 arm mAb1047; also called mAb0874 x mAb1047
B9: biAb0092 (bispecific antibody, human IgG4 S228P, kappa)
heavy 1: B7 heavy 1
light 1: B7 light 1
heavy 2: not shown
light 2: B7 light 2 with Q33N
notes: Duobody, constant domain type H (IgG4): anti-FVII(a) arm mAb0872, anti-TLT-1 arm mAb1049; also called mAb0872 x mAb1049
B10: biAb0093 (bispecific antibody, human IgG4 S228P, kappa)
heavy 1: B8 heavy 1
light 1: B7 light 1 with S90N
heavy 2: not shown
light 2: B7 light 2 with Q33N
notes: Duobody, constant domain type H (IgG4): anti-FVII(a) arm mAb0874, anti-TLT-1 arm mAb1049; also called mAb0874 x mAb1049
B11: biAb0013 (bispecific antibody, human IgG4 S228P, kappa)
heavy 1: B8 heavy 1
light 1: B7 light 1 with S90N
heavy 2: not shown
light 2: B7 light 2
notes: Duobody, constant domain type H (IgG4): anti-FVII(a) arm mAb0874, anti-TLT-1 arm mAb1076; also called mAb0874 x mAb1076
B12: biAb0018 (bispecific antibody, human IgG4 S228P, kappa)
heavy 1: B8 heavy 1
light 1: B7 light 1 with S90N
heavy 2: not shown
light 2: B7 light 2 with Q33P
notes: Duobody, constant domain type H (IgG4): anti-FVII(a) arm mAb0874, anti-TLT-1 arm mAb1038; also called mAb0874 x mAb1038
B13: biAb0017 (bispecific antibody, human IgG4 S228P, kappa)
heavy 1: B7 heavy 1
light 1: B7 light 1
heavy 2: not shown
light 2: B7 light 2 with Q33P
notes: Duobody, constant domain type H (IgG4): anti-FVII(a) arm mAb0872, anti-TLT-1 arm mAb1038; also called mAb0872 x mAb1038

The first test addresses T1, recombinant human activated Factor VII …. Briefly: cell-based or functional assay.
As to B1, the “AT inhibition (kinh %)” value is 525% and the “TGT activity (% FVIIa)” value turned out to be 141 % FVIIa.
Turning to B2, the “AT inhibition (kinh %)” value was 121% and the “TGT activity (% FVIIa)” value is 113 % FVIIa.
On to B3, for which the “AT inhibition (kinh %)” value was 82% and the “TGT activity (% FVIIa)” value is 109 % FVIIa.
For the molecule B4, the “AT inhibition (kinh %)” value was found to be 24% and the “TGT activity (% FVIIa)” value was found to be 75 % FVIIa.
Regarding B5, the “AT inhibition (kinh %)” value worked out at 103% and the “TGT activity (% FVIIa)” value stood at 93 % FVIIa.
In the case of B6, the “AT inhibition (kinh %)” value turned out to be 77% and the “TGT activity (% FVIIa)” value turned out to be 91 % FVIIa.

Another test concerns the target T2, recombinant human activated FVII (FVIIa). Briefly: cell-based or functional assay.
Take B7: the “Stimulation (fold): FXa generated by FVIIa with lipidated TLT-1 and 100 nM biAb, relative to free FVIIa” value (from here on “Stimulation (fold) … relative to free FVIIa”) turned out to be 22.1 fold.
On the same count and under the same terms, next, B8: 15.3 fold.
Take B9: the “Stimulation (fold) … relative to free FVIIa” value came out at 11.2 fold.
The same measure, in the same setting: the figure for B10 is 9.6 fold.
Turning to B11, the “Stimulation (fold) … relative to free FVIIa” value turned out to be 16 fold.
On the same count and under the same terms, next, B12: 12.8 fold.
Take B13: the “Stimulation (fold) … relative to free FVIIa” value was 13.6 fold.

For another test, the target named is T3, sTLT1 (SEQ ID No: 3 with six histidine …). As to the kind of experiment: dissociation constant listed with the stimulatory activities; value of the anti-TLT-1 arm.
Consider B7, for which binding was characterised by a dissociation constant (Kd) of 2.9 nM.
On the same count and under the same terms, the figure for B8 is 75 nM.
B9 yielded a Kd of 320 nM.
As to B10, the affinity, expressed as Kd, was 320 nM.
B11 returned a Kd of 2.9 nM.
Same read-out and setting: the figure for B12 is 19 nM; for B13 it is 19 nM.

The target of another test is T2, recombinant human activated FVII (FVIIa). Briefly: dissociation constant listed with the stimulatory activities; method not given.
With B7, the Kd turned out to be 2.2 nM.
B8: the Kd was 16.2 nM.
As to B9, the Kd is 2.2 nM.
In the case of B10, the Kd was found to be 16.2 nM.
For the molecule B11, the dissociation constant Kd came out at 16.2 nM.
With B12, the dissociation constant Kd turned out to be 16.2 nM.
The same measure, in the same setting: next, B13: 2.2 nM.

A further test has as its target T1, recombinant human activated Factor VII …. Briefly: SPR (Biacore T200), antibody captured on anti-murine IgG, FVIIa injected at 5-135 nM, 1:1 model. How it is done: Anti-murine IgG (by GE Healthcare) was immobilised on a CM4 sensor chip using standard amine coupling chemistry kit (both supplied by GE Healthcare). […] The running buffer was prepared by diluting 10-fold the 10×HBS-P buffer (supplied by GE Healthcare) and supplemented with 1 mg/ml BSA and 5 mM CaCl₂) to give 10 mM HEPES, 150 mM NaCl, 0.05% v/v Polysorbate 20(P20), pH 7.4, 5 mM CaCl₂), 1 mg/ml bovine serum albumin (BSA). […] Regeneration of the chip was achieved using regeneration buffer consisting of 10 mM Gly-HCl pH 1.7 (supplied by GE Healthcare). Binding data were analysed according to a 1:1 model using BiaEvaluation 4.1 supplied by the manufacturer (Biacore AB, Uppsala, Sweden).
For orientation: Surface plasmon resonance follows binding to a sensor surface in real time, without labels.
B1: the equilibrium dissociation constant (Kd) came out at 9.3 nM.
As for B2, the equilibrium dissociation constant (Kd) amounted to 0.25 nM.
In the case of B3, the Kd stood at 0.17 nM.
B4: the Kd worked out at 0.16 nM.
For the molecule B5, the Kd was determined as 0.49 nM.
For B6, the dissociation constant Kd came to 0.58 nM.

As a reminder, the Kd is the equilibrium constant for the complex coming apart.
